Our source for the stoichiometry N and Kd values is paper PMC2814181.

For assay [1], the target named is Neptune (mKate M41G S61C S158C Y194F). Briefly: native gel or EMSA.
The target is the same in assay [2]. Briefly: SEC-MALS. (SEC sorts molecules by how far they enter the pores of the column.)
Assay [3] has the same target. The assay is described as follows: AUC.
The target in assay [4] is Neptune, His tag removed by TEV protease (crystallized form). The assay is described as follows: crystal structure.
Assay [5] concerns the target dTomato. The assay is described as follows: SDS-PAGE of unboiled samples.
Assay [6] deals with dTomato. The assay is described as follows: native gel or EMSA. In general terms: In EMSA bound probe runs differently from free probe, usually more slowly.
Assay [7] concerns the target dTomato. The assay is described as follows: SEC-MALS.
Assay [8] deals with mKate. The assay is described as follows: native gel or EMSA.
Assay [9] addresses mKate. The assay is described as follows: SEC-MALS.

In the case of Neptune (mKate M41G S61C S158C Y194F), the stoichiometry N in assay [1] and in assay [2] was 2 in each case. The dissociation constant (Kd) (in general, the equilibrium constant for the complex coming apart) in assay [3] worked out at 500 nM.

“Neptune, His tag removed by TEV protease (crystallized form)”: the stoichiometry N (commonly the number of molecules, sites or subunits per partner or assembly) in [4] is 4.

As to dTomato, the stoichiometry N with dTomato [5], in the assay with dTomato [6] and with dTomato [7] was 2 in each case.

Consider mKate, for which the stoichiometry N with mKate [8] and with mKate [9] was 2 each time.
